# Measurements taken from patent US20180295858.
# B1: proline tolerant tripeptidyl peptidase TRI083 (protein)
# chain: QEPSSCKGTLVFEGETFNVFQPDCLRTEYSVDGYTPSVKSGSRIGFGSFLNESASFADQALFEKHFNIPSQNFSVVLINGGTDLPQPPSDANDGEANLDAQTILTIAHPLPITEFITAGSPPYFPDPVEPAGTPNENEPYLQYYEFLLSKSNAEIPQVITNSYGDEEQTVPRSYAVRVCNLIGLLGLRGISVLHSSGDEGVGASCVATNSTTPQFNPIFPATCPYVTSVGGTVSFNPEVAWAGSSGGFSYYFSRPWYQQEAVGTYLEKYVSAETKKYYGPYVDFSGRGFPDVAAHSVSPDYPVFQGGELTPSGGTSAASPVVAAIVALLNDARLREGKPTLGFLNPLIYLHASKGFTDITSGQSEGCNGNNTQTGSPLPGAGFIAGAHWNATKGWDPTTGFGVPNLKKLLALVRF
# Biological target: T1, H-AAPPA-NH2
# T1 chain: AAPPA
protein,measurement,value
B1,"hydrolysis of synthetic substrate AAPPA, LC-MS with label free quantification",over time is able to degrade the peptide AAPPA (FIG. 5) and generate the product AAP (FIG. 6)
